This is an account of results in PMC7565926, “Oncogenic Orphan Nuclear Receptor NR4A3 Interacts and Cooperates with MYB in Acinic Cell Carcinoma” (Cancers, 2020).

The assay concerns the target HA-tagged NR4A3 (UniProt Q92570 1-626). The experiment in a line: cell-based or functional assay.

HA-tagged NR4A3, sequence (Q92570 whole entry): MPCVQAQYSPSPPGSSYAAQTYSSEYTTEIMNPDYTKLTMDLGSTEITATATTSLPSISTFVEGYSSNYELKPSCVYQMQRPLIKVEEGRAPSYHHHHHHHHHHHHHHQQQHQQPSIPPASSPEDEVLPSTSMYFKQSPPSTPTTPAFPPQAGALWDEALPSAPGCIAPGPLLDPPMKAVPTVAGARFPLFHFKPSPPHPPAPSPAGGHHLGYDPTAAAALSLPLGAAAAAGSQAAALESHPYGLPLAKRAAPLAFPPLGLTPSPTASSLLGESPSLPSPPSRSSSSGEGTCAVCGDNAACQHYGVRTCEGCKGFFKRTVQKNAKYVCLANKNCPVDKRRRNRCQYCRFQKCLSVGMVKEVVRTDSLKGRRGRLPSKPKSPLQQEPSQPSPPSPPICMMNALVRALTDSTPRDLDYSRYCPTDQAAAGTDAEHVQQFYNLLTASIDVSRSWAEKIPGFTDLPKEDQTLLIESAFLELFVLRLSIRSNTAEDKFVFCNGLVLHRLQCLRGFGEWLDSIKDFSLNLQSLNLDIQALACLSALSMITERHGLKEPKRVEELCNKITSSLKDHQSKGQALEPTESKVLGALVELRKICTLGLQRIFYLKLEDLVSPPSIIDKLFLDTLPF

B1: Myb (natural protein)
chain: not shown
On to B1, for which the “activation of the NurRE luciferase reporter in HeLa cells on co-expression of full-length Myb with NR4A3 (NR4A3 by itself 6-fold)” value was determined as 27 fold.
